Laboratory results taken from paper PMC9105653, “Zinc and Copper Ions Induce Aggregation of Human β-Crystallins” (Molecules, 2022).

B1: human βA1-crystallin (HβA1) (natural protein, UniProt P05813-2 1-198, looked up)
chain: MAQTNPTPGSLGPWKITIYDQENFQGKRMEFTSSCPNVSERSFDNVRSLKVESGAWIGYEHTSFCGQQFILERGEYPRWDAWSGSNAYHIERLMSFRPICSANHKESKMTIFEKENFIGRQWEISDDYPSLQAMGWFNNEVGSMKIQSGAWVCYQYPGYRGYQYILECDHHGGDYKHWREWGSHAQTSQIQSIRRIQQ
notes: human beta-crystallin A1, the shorter product of the gene CRYBA1 (made with betaA3 from the same gene by leaky ribosomal scanning); printed length 198 residues; source: E. coli BL21-RIL, purified (HisTrap, SUMO protease Ulp1 cleavage, second HisTrap, Q-Sepharose)
B2: human βB2-crystallin (HβB2) (natural protein)
chain: ASDHQTQAGKPQSLNPKIIIFEQENFQGHSHELNGPCPNLKETGVEKAGSVLVQAGPWVGYEQANCKGEQFVFEKGEYPRWDSWTSSRRTDSLSSLRPIKVDSQEHKIILYENPNFTGKKMEIIDDDVPSFHAHGYQEKVSSVRVQSGTWVGYQYPGYRGLQYLLEKGDYKDSSDFGAPHPQVQSVRRIRDMQWHQRGAFHPSN
notes: human beta-crystallin B2; printed length 205 residues; source: E. coli BL21-RIL, purified (HisTrap, SUMO protease Ulp1 cleavage, second HisTrap, Q-Sepharose)

Biological target: the molecule itself
Experiment: dynamic light scattering; 50 µM protein in 10 mM Hepes pH 8.0, 100 mM NaCl (buffer B), without metal ions; apparent RH compared with the RH predicted (HullRad) from face-en-face dimer models

| Protein | stoichiometry N |
| --- | --- |
| B1 | 2 |
| B2 | 2 |
